This test has as its target T1, nitrated major birch pollen allergen Bet v 1.0101 (Betula verrucosa), P15494.
T1 chain: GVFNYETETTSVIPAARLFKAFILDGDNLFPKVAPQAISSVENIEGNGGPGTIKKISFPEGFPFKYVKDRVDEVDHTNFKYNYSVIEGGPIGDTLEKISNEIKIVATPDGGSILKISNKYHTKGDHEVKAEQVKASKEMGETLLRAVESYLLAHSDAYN
As to the kind of experiment: SEC + other: Western blot; data not shown; high performance size exclusion chromatography and Western blot analysis of Bet v 1 nitro. Particulars: remark: other sources report otherwise.

The values below come from PMC3279363.

“And” between values parts separate entries of the source, which are not always exact repeats. Identical values can stand only once.

B1: nitrated major birch pollen allergen Bet v 1.0101, P15494 2-160 (natural protein)
chain: GVFNYETETTSVIPAARLFKAFILDGDNLFPKVAPQAISSVENIEGNGGPGTIKKISFPEGFPFKYVKDRVDEVDHTNFKYNYSVIEGGPIGDTLEKISNEIKIVATPDGGSILKISNKYHTKGDHEVKAEQVKASKEMGETLLRAVESYLLAHSDAYN
modifications: here or on the partner: nitrotyrosine: 58.1% of all tyrosine groups within one protein molecule were nitrated (tetranitromethane); all tyrosine residues nitrated to some extent; nitrotyrosine: 58.1% of all tyrosine groups within one protein molecule were nitrated (tetranitromethane); all tyrosine residues nitrated to some extent
As to B1, the stoichiometry N was 2 and 3.

For orientation: stoichiometry N means the number of molecules, sites or subunits per partner or assembly.
